Laboratory results published in patent US7517949B2, “Livin-derived peptides, compositions and uses thereof” (Hadasit Medical Research Services & Development Ltd., priority 2003, dated 2009).
Entries after “also recorded” stand apart in the source; their conditions may differ. Residues, ends and D or L forms follow the SMILES beside them. *: point of attachment. Cbz = O=C(OCc1ccccc1)*; CH2F = FC*

B1: Livin α: full-length Livin isoform α, IAP family member, about 39 kDa (protein, listed as Homo sapiens)
chain: MGPKDSAKCLHRGPQPSHWAAGDGPTQERCGPRSLGSPVLGLDTCRAWDHVDGQILGQLRPLTEEEEEEGAGATLSRGPAFPGMGSEELRLASFYDWPLTAEVPPELLAAAGFFHTGHQDKVRCFFCYGGLQSWKRGDDPWTEHAKWFPSCQFLLRSKGRDFVHSVQETHSQLLGSWDPWEEPEDAAPVAPSVPASGYPELPTPRREVQSESAQEPGGVSPAEAQRAWWVLEPPGARDVEAQLRRLQEERTCKVCLDRAVSIVFVPCGHLVCAECAPGLQLCPICRAPVRSRVRTFLS
B2: p30-Livin α: Livin α-derived peptide, cleavage product, C-terminal subunit of about 30 kDa with BIR and RING domains (protein, listed as Homo sapiens)
chain: GQILGQLRPLTEEEEEEGAGATLSRGPAFPGMGSEELRLASFYDWPLTAEVPPELLAAAGFFHTGHQDKVRCFFCYGGLQSWKRGDDPWTEHAKWFPSCQFLLRSKGRDFVHSVQETHSQLLGSWDPWEEPEDAAPVAPSVPASGYPELPTPRREVQSESAQEPGGVSPAEAQRAWWVLEPPGARDVEAQLRRLQEERTCKVCLDRAVSIVFVPCGHLVCAECAPGLQLCPICRAPVRSRVRTFLS
B3: Livin β: full-length Livin isoform β, IAP family member, about 37 kDa (protein, listed as Homo sapiens)
chain: MGPKDSAKCLHRGPQPSHWAAGDGPTQERCGPRSLGSPVLGLDTCRAWDHVDGQILGQLRPLTEEEEEEGAGATLSRGPAFPGMGSEELRLASFYDWPLTAEVPPELLAAAGFFHTGHQDKVRCFFCYGGLQSWKRGDDPWTEHAKWFPSCQFLLRSKGRDFVHSVQETHSQLLGSWDPWEEPEDAAPVAPSVPASGYPELPTPRREVQSESAQEPGARDVEAQLRRLQEERTCKVCLDRAVSIVFVPCGHLVCAECAPGLQLCPICRAPVRSRVRTFLS
B4: p28-Livin β: Livin β-derived peptide, cleavage product, C-terminal subunit of about 28 kDa with BIR and RING domains (protein, listed as Homo sapiens)
chain: GQILGQLRPLTEEEEEEGAGATLSRGPAFPGMGSEELRLASFYDWPLTAEVPPELLAAAGFFHTGHQDKVRCFFCYGGLQSWKRGDDPWTEHAKWFPSCQFLLRSKGRDFVHSVQETHSQLLGSWDPWEEPEDAAPVAPSVPASGYPELPTPRREVQSESAQEPGARDVEAQLRRLQEERTCKVCLDRAVSIVFVPCGHLVCAECAPGLQLCPICRAPVRSRVRTFLS

Key:
[1] = tested on: Livin cleavage in Jurkat cells; experiment: Livin cleavage in Jurkat cells pre-incubated with caspase inhibitors (Western blot); format: cell-based, human; conditions: Jurkat cells pre-incubated with inhibitor prior to treatment
Protocol: FIG. […]
Whole cell lysates were prepared using lysis buffer (Tris-HCl 20 mM, EDTA 2 mM, β-2-Mercaptoethanol 6 mM, NP-40 1%, SDS 0.1%). Protease inhibitors included: PMSF 1 mM, Protease inhibitor cocktail (Sigma) diluted 1:10, and Complete inhibitor cocktail (Roche, Germany) diluted 1:25. About 0.25-1×10^6 cells were lysed in a total volume of 100 μl, incubated at 4° C. for 20 minutes with vigorous vortexing. Protein content was assessed by Bradford assay (Bio-Rad, Germany), according to the manufacturer's instructions. Samples were resolved on a 10% Bis-Tris pre-cast gel, following the manufacturer's instructions (Invitrogen, USA). After transferring the gel to a PVDF membrane (Millipore, Mass. USA), the membrane was exposed to the antibodies in blocking solution (PBS 1% Casein, 0.05% Tween 20) for 1 hour, followed by three 5-minute washes with PBS. The monoclonal antibody against Livin (clone:88C570) was purchased from Imgenex, and diluted 1:3000 in blocking solution. Survivin 6E4 monoclonal antibody was used according to the manufacturer's recommendation. […]
Cells were incubated with caspase inhibitors for 1-2 hour prior to treatment with the apoptotic stimuli. […] Caspase 9 activity was assessed using caspase-9 colorimetric substrate LEHD-pNA (Biovision, Calif., USA). […]

[2] = tested on: Jurkat cells; experiment: Protection of Livin-expressing cells from drug-induced apoptosis; format: cell-based, human
Protocol: Primary cultures of melanoma cells were tested for the expression of Livin, XIAP and Survivin. XIAP and Survivin were widely expressed in most of the melanoma samples tested. On the other hand, Livin was expressed at variable levels, in 10 out of the 27 melanoma samples.
To further explore the cleavage of each isoform, retroviral infection to establish a Jurkat T-cell Leukemia/Lymphoma cell line and an EBV-transformed B cell line 721.221, expressing high, stable levels of either Livin α or β were used. […] A panel of the three drugs etoposide, staurosporine, and anti-CD95/Fas ligand was thus used to induce apoptosis in the transfected Jurkat and 721.221 cells. Similar results were observed when cells were treated with anti-CD95/Fas antibody (data not shown). The correlation between the timing of the cleavage and apoptosis rate was further investigated.

[3] = tested on: Jurkat cells; conditions: cited from earlier work
[4] = tested on: 721.221 cells; experiment: Apoptosis of stably transfected 721.221 cells after anti-CD95/Fas treatment (nuclear morphology, acridine orange); format: cell-based; conditions: 0.1 μg/ml anti-CD95/Fas antibody, 18 hours, compared with wild type 721.221 cells
Protocol: FIG. 6a: 721.221 cells stably expressing either Livin α or […], and wild type 721.221 cells, were treated with 0.1 μg/ml anti-CD95/Fas antibody for 18 hours. Nuclear morphology was visualized using acridine orange staining and used for determining apoptosis rate.
(§1) Transfection with the pIRES2-EGFP plasmid (QIAGEN, Germany) encoding p30-Livin α or p28-Livin β, and as positive controls, the full length wild type cDNA of either Livin α or β was done either by electroporation, in 721.221 cells [Mandelboim, O. et al. (1996) J. Exp. Med., 184: 913-922], or using PolyFect (QIAGEN), in human embryonic kidney 293T cells, according to manufacturers instructions. […] Thus, cells transfected with this plasmid may be monitored for transfection by the absence or presence of the GFP signal.
(§2) Nuclear morphology was visualized using acridin orange (Sigma) staining as described [Loo, D. T. et al. (1998) Methods Cell Biol., 57: 251-264]. […] The percentage of apoptotic to viable cells was counted by fluorescence microscopy and 500 cells were scored for each sample. […] Cells transfected with a GFP-containing plasmid were analyzed using Annexin-V-Cy5 and PI staining according to the manufacturer instructions (MBL, Japan). In stably transfected cultures with a rate of GFP-positive cells higher than 95%, all cells were analyzed for apoptosis. […]

[5] = tested on: LB33 Mel A1 cells; experiment: Cell death of transiently transfected LB33 Mel A1 cells (PI stain of GFP-positive cells); format: cell-based, human; conditions: data not shown; for induction of apoptosis by transient transfection: in comparison to full-length counterparts or control
Protocol: At the indicated times post transfection cells were analyzed for GFP percent as a marker of transfection, and the GFP-positive population was further analyzed for cell death using PI stain.

[6] = tested on: 293T cells; experiment: Spontaneous apoptosis of transiently transfected 293T cells (Annexin V/PI flow cytometry of GFP-positive cells); format: cell-based, human; conditions: 24 hours post-transfection, in comparison to full-length proteins or empty vector
Protocol: FIG. 6c: 293T cells were transiently transfected with the indicated plasmids. 24 hours post-transfection, cells were harvested and analyzed by flow cytometry. Apoptosis of GFP-positive cells was analyzed by Annexin-V/PI stain.
as §1, §2

| Molecule | cleavage of Livin [1] | rate of apoptosis following anti-CD95/Fas treatment [4] | induction of apoptosis by transient transfection [5] | rate of spontaneous apoptosis [6] | further results |
| --- | --- | --- | --- | --- | --- |
| CC[C@H](C)[C@H](NC(=O)[C@H](CCC(=O)O)NC(=O)[C@@H](NC(C)=O)C(C)C)C(=O)N[C@H](C=O)CC(=O)O [caspase 6 inhibitor] (Ac-VEID-aldehyde) | not |  |  |  |  |
| COC(=O)C[C@H](NC(=O)[C@H](C)NC(=O)[C@@H](NC(=O)OCc1ccccc1)C(C)C)C(=O)CF [zVAD-FMK] (Cbz-Val-Ala-Asp(OMe)-CH2F) | significantly diminished the cleavage of Livin |  |  |  |  |
| B1 |  | lower rate of apoptosis |  |  | protection from staurosporine-induced apoptosis [2]: can protect from staurosporine-induced apoptosis; protection against anti-CD95/Fas antibody-induced apoptosis ([3]; inventors' previous work (Ashhab 2001)): able to protect from apoptosis |
| B2 |  | gained significant pro-apoptotic activity; also recorded: much higher rate of apoptosis | sufficient to induce apoptosis | significantly higher rate of spontaneous apoptosis |  |
| B3 |  |  |  |  | protection against other chemotherapeutic agents ([2]; Jurkat cells, Daunorubicin, Fludarabine and Cytosine arabinoside, unpublished data): protect Jurkat cells; inhibition of etoposide-induced apoptosis ([3]; previously demonstrated by the inventors (Ashhab 2001)): inhibit etoposide-induced apoptosis; also recorded: can only block etoposide-induced apoptosis |
| B4 |  |  | sufficient to induce apoptosis | significantly higher rate of spontaneous apoptosis | rate of apoptosis, p28-Livin β relative to p30-Livin α ([5]; all time points tested): more potent pro-apoptotic agent than p30-Livin α; also recorded: much higher rate of apoptosis than p30-Livin α |
